# Earlier results, collected in paper PMC5855614.
# Biological target: Galectin-3 (Homo sapiens) (UniProt P17931)
# Sequence (P17931 2-250): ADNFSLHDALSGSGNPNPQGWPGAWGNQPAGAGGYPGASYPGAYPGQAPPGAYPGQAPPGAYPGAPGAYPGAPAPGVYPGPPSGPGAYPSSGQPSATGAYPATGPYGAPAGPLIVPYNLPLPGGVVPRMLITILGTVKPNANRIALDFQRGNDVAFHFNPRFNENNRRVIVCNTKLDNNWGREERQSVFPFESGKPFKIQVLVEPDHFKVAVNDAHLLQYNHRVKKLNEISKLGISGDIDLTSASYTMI
substance,measurement,value
G3-C12,Kd,72 nM
